Measurements reported in patent EP4454706A1 (Universität Stuttgart, dated 2024).
Substitutions are numbered along the chain they refer to. Names and notes keep the numbering of the source.

Experiments:
[1] = target: T1, human EGFR (aa 1 - 1,210), on cells (human, UniProt P00533 25-1210); assay: cell-based or functional assay
[2] = target: T1, human EGFR (aa 1 - 1,210), on cells; assay: flow cytometry, FaDu cells
CD3 on Jurkat cells = target: T2, CD3 on Jurkat cells (human, UniProt P07766 23-207); assay: flow cytometry, Jurkat cells
T2 construct: whole, on cells; also called CD3-expressing Jurkat

[3] = target: T1, human EGFR (aa 1 - 1,210), on cells; assay: flow cytometry, LIM1215 cells
[4] = target: T3, EGFR-moIgG2a-Fc fusion protein comprising the extracellular domain (aa 25 - 645) of human EGFR (human); assay: ELISA, coated EGFR-moIgG2a-Fc
T3 construct: also called EGFR wt

[5] = target: T4, EGFR-His fusion protein comprising the extracellular domain (aa 25 - 645) of human EGFR (human, UniProt P00533 25-645); assay: BLI (Octet), Fab on FAB2G sensor, EGFR-His in solution
T4 construct: also called His-tagged extracellular domain of EGFR wt

[6] = target: T5, His-tagged extracellular domain of EGFR comprising the mutation V441D (human, UniProt P00533 25-645); assay: as above
T5 construct: See m46; also called V441D (BLI antigen)

[7] = target: T6, His-tagged extracellular domain of EGFR comprising the mutation S464L (human, UniProt P00533 25-645); assay: as above
T6 construct: See m46; also called S464L (BLI antigen)

[8] = target: T7, His-tagged extracellular domain of EGFR comprising the mutation G465R (human, UniProt P00533 25-645); assay: as above
T7 construct: See m46; also called G465R (BLI antigen)

[9] = target: T8, His-tagged extracellular domain of EGFR comprising the mutation S492R (human, UniProt P00533 25-645); assay: as above
T8 construct: See m46; also called S492R (BLI antigen)

[10] = target: T3, EGFR-moIgG2a-Fc fusion protein …; assay: ELISA, coated EGFR-moIgG2a-Fc; remark: listed apart in the source
[11] = target: T4, EGFR-His fusion protein comprising the …; assay: ELISA, coated EGFR-His
[12] = target: T1, human EGFR (aa 1 - 1,210), on cells; assay: flow cytometry, DiFi cells
[13] = target: T1, human EGFR (aa 1 - 1,210), on cells; assay: flow cytometry, FaDu cells; remark: listed apart in the source
[14] = target: T4, EGFR-His fusion protein comprising the …; assay: ELISA, coated human EGFR
[15] = target: T1, human EGFR (aa 1 - 1,210), on cells; assay: flow cytometry, A431 cells
[16] = target: T1, human EGFR (aa 1 - 1,210), on cells; assay: flow cytometry, DiFi cells; remark: listed apart in the source
[17] = target: T1, human EGFR (aa 1 - 1,210), on cells; assay: flow cytometry, FaDu cells; remark: listed apart in the source
[18] = target: T4, EGFR-His fusion protein comprising the …; assay: ELISA, coated human EGFR-His
[19] = target: T9, EGFR-His fusion protein comprising the extracellular domain of murine EGFR (aa 25 - 647) (murine, UniProt Q01279 25-647); assay: ELISA, coated murine EGFR-His
T9 construct: Bought protein; also called mouse EGFR; Sino Biological 51091-M08H

[20] = target: T1, human EGFR (aa 1 - 1,210), on cells; assay: flow cytometry, LIM1215 cells; remark: listed apart in the source
[21] = target: T10, EGFR-His fusion protein comprising the extracellular domain of cynomolgus monkey EGFR (aa 1 - 645) (cynomolgus monkey, UniProt P55245 25-645 (rhesus entry)); assay: ELISA, coated cynomolgus monkey EGFR-His
T10 construct: Bought protein; also called Sino Biological SIN-90285-C08H-50

[22] = target: T4, EGFR-His fusion protein comprising the …; assay: ELISA, coated EGFR-His; remark: listed apart in the source

B1: scDb YU250-H10 x huU3 (bispecific antibody)
chain: QVQLVQSGGGVVQPGGSLRLSCAASGFTFSSYGMHWVRQAPGKGLEWVAFIRYDGSNKYYADSVKGRFTISRDNSKNTLYLQMNSLRAEDTAVYYCAKDGNSGYDSMDYWGQGTLVTVSSGGGGSDIQMTQSPSSLSASVGDRVTITCRASQDIRNYLNWYQQKPGKAPKLLIYYTSRLHSGVPSRFSGSGSGTDFTFTISSLQPEDIATYYCQQGNTLPWTFGQGTKLEIKRGGGGSGGGGSGGGGSQVQLVQSGAEVKKPGSSVKVSCKASGGTFSGYTMNWVRQAPGQGLEWMGLINPYKGVSTYNGKFKDRVTITADKSTSTAYMELSSLRSEDTAVYYCARSGYYGDSDWYFDVWGQGTLVTVSSGGGGSQSVLTQPPSVSGAPGQRVTISCSGGSSNVGRNGVNWFQHLPEKAPKLLIYYDAFLSSGVSDRFSGSKSGTSASLAIRGLQSDDEADYYCAAWDDSLYSWVFGGGTNLTVLAAAGGSGGGGSGGGTGGGGSLHHHHHH
notes: Bivalent single-chain diabody; detected with an anti-His antibody; also called bispecific EGFRxCD3 scDb
In the case of B1, the “IC50 for cytotoxicity, FaDu + PBMCs (E:T 10:1)” value [1] is reported as 0.0181 nM, the “IC50 for cytotoxicity, LIM1215 + PBMCs (E:T 10:1)” value [1] is reported as 0.0602 nM and the EC50 [2] is reported as 1.68 nM. For the same binder, the EC50 (CD3 on Jurkat cells) was 7.56 nM and the EC50 [3] was 1.02 nM.

B2: scDb-YU250-H10 x huU3-scFv-YU250-H10 (bispecific antibody)
chain: QVQLVQSGGGVVQPGGSLRLSCAASGFTFSSYGMHWVRQAPGKGLEWVAFIRYDGSNKYYADSVKGRFTISRDNSKNTLYLQMNSLRAEDTAVYYCAKDGNSGYDSMDYWGQGTLVTVSSGGGGSDIQMTQSPSSLSASVGDRVTITCRASQDIRNYLNWYQQKPGKAPKLLIYYTSRLHSGVPSRFSGSGSGTDFTFTISSLQPEDIATYYCQQGNTLPWTFGQGTKLEIKRGGGGSGGGGSGGGGSQVQLVQSGAEVKKPGSSVKVSCKASGGTFSGYTMNWVRQAPGQGLEWMGLINPYKGVSTYNGKFKDRVTITADKSTSTAYMELSSLRSEDTAVYYCARSGYYGDSDWYFDVWGQGTLVTVSSGGGGSQSVLTQPPSVSGAPGQRVTISCSGGSSNVGRNGVNWFQHLPEKAPKLLIYYDAFLSSGVSDRFSGSKSGTSASLAIRGLQSDDEADYYCAAWDDSLYSWVFGGGTNLTVLAAAGGSGGGGSGGGTQVQLVQSGGGVVQPGGSLRLSCAASGFTFSSYGMHWVRQAPGKGLEWVAFIRYDGSNKYYADSVKGRFTISRDNSKNTLYLQMNSLRAEDTAVYYCAKDGNSGYDSMDYWGQGTLVTVSSGGGGSGGGGSGGGGSQSVLTQPPSVSGAPGQRVTISCSGGSSNVGRNGVNWFQHLPEKAPKLLIYYDAFLSSGVSDRFSGSKSGTSASLAIRGLQSDDEADYYCAAWDDSLYSWVFGGGTNLTVLGSLHHHHHH
notes: Trivalent; detected with an anti-His antibody; also called scDb-scFv; bispecific trivalent EGFRxCD3 scDb-scFv
B2 was tested, and the “IC50 for cytotoxicity, FaDu + PBMCs (E:T 10:1)” value [1] was 0.0044 nM, the “IC50 for cytotoxicity, LIM1215 + PBMCs (E:T 10:1)” value [1] was 0.004 nM and the EC50 [2] was 0.74 nM. The EC50 (CD3 on Jurkat cells) was over 10 nM and the EC50 [3] was 0.31 nM.

B3: Fab-His MKU011-A7 (Fab, V domains shown)
VH: QVQLVQSGGGVVQPGGSLRLSCAASGFTFSSYGMHWVRQAPGKGLEWVAFIRYDGSNKYYADSVKGRFTISRDNSKNTLYLQMNSLRAEDTAVYYCAKDGNSGYDSMDYWGQGTLVTVSS
VL: QPVLTQSPSASGTPGQRVTISCSGVSSNIGRNYVYWYQQFPGTAPKLLIYATHQRPSGVPDRFSGSKSGTSASLAISGLRSEDEANYYCAAWDDGVTGWVFGGGTKLTVLG
notes: also called Fab MKU011-A7; His-tagged anti-EGFR Fab MKU011-A7
Work on B3 yielded an EC50 [4] of 2.79 nM, a Kd [5] of under 100 nM and a Kd [6] of under 10000 nM. The Kd [7] was under 10000 nM, the Kd [8] was under 10000 nM and the Kd [9] was under 10000 nM.

B4: Fab-His YU250-A02 (Fab, V domains shown)
VH: B3 VH with V5Q, Q6E
VL: QSVLTQPPSVSGAPGQRVTISCSGGSSNVGRNGVNWFQHLPEKAPKLLIYYDAFLSSGVSDRFSGSKSGTSASLAIRGLQSEDEADYYCASWDDSLTGWVFGGGTKLTVLG
notes: Roles inferred as for IgG YU250-A02; also called Fab YU250-A02
In the case of B4, the Kd [5] is reported as under 100 nM, the Kd [6] is reported as under 10000 nM and the Kd [7] is reported as under 10000 nM. The Kd [8] was under 10000 nM and the Kd [9] was under 10000 nM.

B5: Fab-His YU250-H10 (Fab, V domains shown)
VH: B3 VH
VL: B4 VL with E82D, S91A, T97Y, G98S, K106N
notes: T0001 gives '6 and 8' and '9 and 11' for Fab-His YU250-H10; Roles inferred; also called Fab YU250-H10
In the case of B5, the “fold increased binding against Fab-His MKU011-A7” value [10] is reported as 4.7 fold, the EC50 [4] is reported as 0.59 nM and the Kd [5] is reported as under 100 nM. For the same binder, the Kd [6] was under 10000 nM, the Kd [7] was under 10000 nM and the Kd [8] was under 10000 nM. For the same binder, the Kd [9] was under 10000 nM.

B6: IgG1 MKU011-A7 (antibody, V domains shown)
VH: B3 VH
VL: B3 VL
notes: Fully human IgG1; also called IgG MKU011-A7; IgG MKU-011-A07
B6 gave an EC50 [11] of 0.19 nM, an EC50 [12] of 0.81 nM and an EC50 [13] of 0.35 nM. It also gave an EC50 [4] of 0.32 nM.

B7: IgG1 YU250-A02 (antibody, V domains shown)
VH: B3 VH with V5Q, Q6E
VL: B4 VL
notes: also called IgG YU250-A02
In the case of B7, the EC50 [11] is reported as 0.16 nM, the EC50 [14] is reported as 0.59 nM and the EC50 [12] is reported as 0.64 nM. For the same binder, the EC50 [13] was 0.23 nM, the EC50 [15] was 1.24 nM and the EC50 [16] was 0.64 nM. It also gave an EC50 [17] of 0.26 nM, an EC50 [18] of 0.36 nM and an EC50 [19] of 0.38 nM. The EC50 [20] was 0.09 nM and the EC50 [21] was 0.69 nM.

B8: IgG1 YU250-H10 (antibody)
light: QSVLTQPPSVSGAPGQRVTISCSGGSSNVGRNGVNWFQHLPEKAPKLLIYYDAFLSSGVSDRFSGSKSGTSASLAIRGLQSDDEADYYCAAWDDSLYSWVFGGGTNLTVLGQPKAAPSVTLFPPSSEELQANKATLVCLISDFYPGAVTVAWKADSSPVKAGVETTTPSKQSNNKYAASSYLSLTPEQWKSHRSYSCQVTHEGSTVEKTVAPTECS
heavy: not shown
notes: also called IgG YU250-H10
In the case of B8, the EC50 [11] is reported as 0.19 nM, the EC50 [14] is reported as 0.78 nM and the EC50 [12] is reported as 0.78 nM. For the same binder, the EC50 [13] was 0.29 nM, the EC50 [15] was 1.56 nM and the EC50 [16] was 0.73 nM. The EC50 [17] was 0.27 nM, the EC50 [18] was 0.28 nM and the EC50 [4] was 0.27 nM. It also gave an EC50 [19] of 0.45 nM, an EC50 [20] of 0.09 nM and an EC50 [21] of 0.58 nM.

B9: IgG YU250-H10 wt (parental antibody of Example 5) (antibody)
light: B8 light
heavy: not shown
notes: kept as a molecule of its own; Roles inferred
B9 gave an EC50 [22] of 0.49 nM.

B10: IgG YU250-H10 variant VL N126K (antibody)
light: B8 light with N106K
heavy: not shown
notes: Potential glycosylation site in VL deleted (N126K); Roles inferred; also called VL N1216K
For B10, the EC50 [22] was 0.53 nM.
